For 167 variants, self-cleavage results are on record in the RNAGym collection of RNA variant scans (doi:10.1093/nar/gkz1192).

B1: CPEB3 Ribozyme (parent)
chain: UAACAGGGGGCCACAGCAGAAGCGUUCACGUCGCAGCCCCUGUCAGAUUCUGGUGAAUCUGCGAAUUCUGCUGUAUAUCUC

Variants of B1 are the subject of this data set. Put plainly: self-cleavage, relative activity (ratio to wild type); higher = more cleavage; in vitro, sequencing. The method in brief: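 After error-prone PCR and barcoding, CPEB3 ribozyme mutant libraries were transcribed with T7 RNA polymerase at 37°C for 5 hours, then given 15 min with DNase I before an EDTA stop, and they cleaved during both steps. Reverse transcription with template switching preceded Illumina sequencing. Relative activity divides a variant's cleaved/total read fraction by the unmutated ribozyme's. At least 5 reads were required per variant, and three batches were averaged.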
C29U U58A: the self-cleavage was 0.43.
Consider C29U U58C, for which the self-cleavage turned out to be 0.46.
Then C29U U58G, with 0.17.
With U31A C68U the figure was 0.54; with G30U G52A, 0.17.
With U31A G63A the figure was 0.39.
Take C29U U67C: the self-cleavage came to 0.23.
Then C29U U67A, with 0.29.
With C29U U76A the figure was 0.62; with C29U U76C, 0.52; with U31A G61A, 0.37.
For the variant U31A G61C, the self-cleavage amounted to 0.24.
With U31A C34U the figure was 0.23; with U31A C34G, 0.2; with G30A A77U, 0.33.
With G30A A77G the figure was 0.4; with C29U A56C, 0.42; with C29U A56U, 0.16.
With C29U A56G the figure was 0.38.
C29U C79G: the self-cleavage was 0.68.
With C29U C79A the figure was 0.7.
With C29U C79U, the self-cleavage is 0.38.
With G30U U66A the figure was 0.13; with C29U C39A, 0.28; with C29U C39G, 0.22.
As to G30U C62A, the self-cleavage is 0.08.
Then C29U A75U, with 0.72.
In the case of C29U A75G, the self-cleavage amounted to 0.46.
Then C29U C59A, with 0.24; and G30C C40U, with 0.23; and C29U U51A, with 0.53.
With C29U U51G the figure was 0.8; with C29U U51C, 0.46.
With U31A A77U the figure was 0.51; with U31A A77G, 0.32; with G30A G70A, 0.39.
For the variant U31A A47G, the self-cleavage was 0.54.
Then U31A A47U, with 0.29.
With U31C A47G the figure was 0.8; with U31C A47U, 0.4; with U31C A47C, 0.31.
Then G30A U69C, with 0.33; and G30A U69A, with 0.23.
In the case of G30A U69G, the self-cleavage worked out at 0.19.
With C29U C38U the figure was 0.16; with G30U U72G, 0.15; with G30U U72C, 0.08.
With G30U U72A the figure was 0.22; with G30C U78C, 0.38.
As to G30C U78G, the self-cleavage came out at 0.2.
Regarding C29U G30U, the self-cleavage amounted to 0.23.
G30U A57G: the self-cleavage was determined as 0.13.
On to G30U A57U, for which the self-cleavage was found to be 0.14.
In the case of U31A C71A, the self-cleavage was found to be 0.17.
With U31A C71U the figure was 0.29; with U31A C71G, 0.19; with G30U U69A, 0.1.
For C29G U69G, the self-cleavage was found to be 0.12.
With C29G U69A the figure was 0.13; with C29G U69C, 0.21.
For the variant G30U A64G, the self-cleavage worked out at 0.23.
With U31A A45G the figure was 0.35; with U31A A45U, 0.32.
Then G30A U78C, with 0.24; and G30A U78A, with 0.53; and C29U U31C, with 0.31.
As for C29U U31A, the self-cleavage was 0.2.
Then G30A A64U, with 0.34; and G30A A64G, with 0.43; and G30A C40U, with 0.54.
On to U31A U74C, for which the self-cleavage turned out to be 0.77.
As for U31A U74A, the self-cleavage worked out at 0.74.
Regarding U31A U74G, the self-cleavage was determined as 0.84.
Regarding C29U C62G, the self-cleavage turned out to be 0.24.
For the variant C29U C62U, the self-cleavage was found to be 0.21.
For C29U, the self-cleavage turned out to be 0.51.
With U31A G36U the figure was 0.1.
Then U31C A45C, with 0.22; and U31C A45G, with 0.52; and U31C A45U, with 0.32.
With G30U U41A the figure was 0.16; with G30U U41G, 0.13.
As to G30U U41C, the self-cleavage was determined as 0.27.
With C29U A65G the figure was 0.27.
Take U31A U76C: the self-cleavage came to 0.48.
With U31A C50U the figure was 0.41; with G30U A65G, 0.25.
Then C29U A64G, with 0.23.
With C29U A64C the figure was 0.24; with C29U A64U, 0.25; with G30A A56G, 0.37.
As for G30A A56U, the self-cleavage was found to be 0.37.
With G30A U49C the figure was 0.16; with G30A U49G, 0.22.
Regarding G30A U49A, the self-cleavage amounted to 0.1.
Then G30A A65G, with 0.38; and C29U C32U, with 0.51.
With C29U U54A the figure was 0.54.
Then C29U U54C, with 0.42; and G30U U51C, with 0.16; and G30U U51A, with 0.11.
Regarding G30A G36A, the self-cleavage worked out at 0.4.
With G30A G36U the figure was 0.44.
As to U31A C79U, the self-cleavage was determined as 0.48.
As to G30U U49C, the self-cleavage is 0.42.
For the variant G30U U49A, the self-cleavage is 0.35.
As to G30C U72A, the self-cleavage was determined as 0.13.
With G30C U72G the figure was 0.16; with U31A G46C, 0.2.
Then U31A G46U, with 0.12; and U31A C62A, with 0.28.
With U31A C62U the figure was 0.26; with G30A U41C, 0.22.
Turning to G30A U41A, the self-cleavage stood at 0.14.
With G30A U41G, the self-cleavage was found to be 0.4.
Then U31A G55A, with 0.41; and C29U U43A, with 0.53.
With C29U U43G the figure was 0.48.
Then C29U U43C, with 0.31; and C29U A77G, with 0.61.
For C29U A77U, the self-cleavage was 0.49.
Then C29U A77C, with 0.5.
In the case of G30U U31C, the self-cleavage is 0.43.
For the variant U31A U60G, the self-cleavage was determined as 0.2.
As to U31A U60C, the self-cleavage was found to be 0.25.
With U31A U60A the figure was 0.32.
With U31A U80C the figure was 0.66; with U31A U80A, 0.61.
For the variant U31A U80G, the self-cleavage turned out to be 0.55.
With U31A A75U the figure was 0.61; with U31A A75G, 0.47; with C29U G52U, 0.39.
On to C29U G52A, for which the self-cleavage was 0.46.
Regarding C29U A35U, the self-cleavage was found to be 0.22.
As for C29U A35G, the self-cleavage stood at 1.16.
With C29U A35C, the self-cleavage worked out at 0.25.
Take G30U U54C: the self-cleavage amounted to 0.14.
In the case of G30C A75G, the self-cleavage was 0.12.
With U31A U72A the figure was 0.41; with U31A U72C, 0.66.
For the variant U31A U54A, the self-cleavage was found to be 0.55.
With U31A U54G the figure was 0.55; with U31A U54C, 0.5.
With G30U A47G the figure was 0.22; with U31A U49C, 0.22; with U31A U49A, 0.41.
With U31A G33A the figure was 0.24; with U31A G33U, 0.13.
As for G30U A35G, the self-cleavage turned out to be 0.05.
Then G30A U66C, with 0.32; and G30A U66A, with 0.23.
With G30U C79G the figure was 0.12; with C29U U72G, 0.53.
With C29U U72C the figure was 0.75.
Regarding C29U U72A, the self-cleavage is 0.42.
As for G30A U54C, the self-cleavage stood at 0.43.
C29G U74C: the self-cleavage came to 0.31.
Then U31A G73C, with 1.08; and U31A G73A, with 1.04; and U31A U58C, with 0.36.
Then G30A A75G, with 0.26.
With C29U U69A the figure was 0.3; with C29U U69C, 0.16; with C29U U69G, 0.35.
Take G30U G42A: the self-cleavage turned out to be 0.23.
In the case of G30U A77G, the self-cleavage was 0.16.
With G30U U76A, the self-cleavage worked out at 0.5.
